Laboratory results reported in patent US20090148464A1.

Biological target: His-tagged recombinant MIF (macrophage migration inhibitory factor), expressed in Escherichia coli from pQE30
Experiment: SPR, BIAcore 2000, His-tagged MIF on Sensor Chip NTA, TRX as analyte, 1:1 binding with drifting baseline model

His-tagged recombinant MIF (macrophage migration inhibitory factor), expressed in Escherichia coli from pQE30, sequence (P14174 2-115): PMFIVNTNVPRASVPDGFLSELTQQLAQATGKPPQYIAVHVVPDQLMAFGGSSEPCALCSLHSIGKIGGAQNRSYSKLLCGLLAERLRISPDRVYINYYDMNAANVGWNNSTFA

Kd: 9.96 nM | kon: 120 M⁻¹ s⁻¹
Substance: Recombinant TRX (Ajinomoto Co., Inc.)
